Test results reported in PMC6017673, “Functional Characterization of the Saccharomyces cerevisiae Equilibrative Nucleoside Transporter 1 (ScENT1)” (Molecules : A Journal of Synthetic Chemistry and Natural …, 2018).
Changes are numbered by the printed parent chain. Names may count otherwise.

B1: ScENT1 (FUN26) (Saccharomyces cerevisiae S288C) (protein)
chain: MSTSADTDTIKKPILAVPEPALADTHSEEISRSGEEHESENNEHSDEEGDNYSEREQSVSTEPLDTLPLRKKLKNLSYITFFAIGIGLLWPWNCILSASQYFKHDIFKDTSIWAKIFTSSMMSFSTISSMLFNIYLAKRQYKYSRRVINGLVWEIIVFTVMCFFTILHFLLPKWFNFMFIMMLVVISSMGTAMTQNGIMAIANVFGSEYSQGVMVGQAVAGVLPSLVLFALAFIENSSVSTTGGILLYFFTTTLVVTICVVMFSVSKISRKVNENWNVEDGHITDVLLGSLRSNEEEIRIVGRIDQMEDEDHRRTNGTRDDNDEGEELQLKVPFEVLFAKLKYLVLSIFTTFVVTLVFPVFASATYVTGLPLSNAQYIPLIFTLWNLGDLYGRVIADWPMFRDQKFTPRKTFIYSLLRVAAIPLFLMFTAITSSSSGDEEHNGSVIVDLCYMLLQFLFGVTNGHVISMSFMKVPEQLDNDDEKEAAGGFTNIFVSTGLALGSIISYVFVFIIDFIIR
notes: full-length, poly-His tagged (TALON, SEC), overexpressed in S. cerevisiae W303-delta-pep4, DDM-solubilised, reconstituted in proteoliposomes
B2: ScENT1 (FUN26) (Saccharomyces cerevisiae S288C; L390A) (protein)
chain: B1 chain with L390A
notes: as for B1
B3: ScENT1 (FUN26) (Saccharomyces cerevisiae S288C; F249I) (protein)
chain: B1 chain with F249I
notes: as for B1

How the values were obtained:
Assay in all cases: purified protein
purified protein [1] = substrate: O=c1ccn([C@@H]2O[C@H](CO)[C@@H](O)[C@H]2O)c(=O)[nH]1; format: biochemical, Saccharomyces cerevisiae; conditions: labelled compound; purified transporter in proteoliposomes
purified protein [2] = substrate: Nc1ccn([C@@H]2O[C@H](CO)[C@@H](O)[C@H]2O)c(=O)n1; conditions: labelled compound; purified transporter in proteoliposomes
purified protein [3] = substrate: O=c1ccn([C@@H]2O[C@H](COP(=O)(O)OP(=O)(O)OP(=O)(O)O)[C@@H](O)[C@H]2O)c(=O)[nH]1; format: biochemical, Saccharomyces cerevisiae; conditions: labelled compound, purified transporter in proteoliposomes

Row | Protein | Km (purified protein [1]) | Km (purified protein [2]) | Km (purified protein [3]; extrapolated beyond tested concentrations, not saturated) | Km (purified protein [3])
1 | B1 | 0.327 µM | 0.195 µM | – | –
2 | B2 | 0.215 µM | – | 2.92 µM | –
3 | B3 | – | 0.452 µM | – | 0.13 µM
